In publication PMC10952621, “Long QT syndrome‐associated calmodulin variants disrupt the activity of the slowly activating delayed rectifier potassium channel” (The Journal of Physiology, 2023):

Target: human wild-type calmodulin (CaM-WT) (human, UniProt P0DP23 2-149)
Assay: ITC; Kv7.1-HA peptide titrated into CaM (~50 uM) in the cell; 50 mM Na-HEPES, 100 mM KCl, 2 mM MgCl2, pH 7.5, 5 mM CaCl2; 25 °C; one-site binding model
Conditions: both partners purified

Kd: ~96 µM
B1: Kv7.1-HA(370-389) peptide, helix A of the KCNQ1 C-terminus (peptide)
peptide: AAASLIQTAWRCYAAENPDS
notes: source: synthetic peptide (GenicBio, HPLC purified, >95% purity)
